Results as given in the supplement of paper PMC9112550, “Optimization of the antimicrobial peptide Bac7 by deep mutational scanning” (BMC Biology, 2022).

Each sequence was assayed on Escherichia coli TOP10 (assay: shrunken log2 fold change of peptide-encoding DNA abundance (4.5 h post-induction vs induction); higher = less antimicrobial activity (less host growth inhibition)). Details: time post-induction: 4.5 h; library: site-saturation at positions 5, 18, 19, 20.
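Note: peptides expressed intracellularly from a pBAD plasmid library in pooled LB shake-flask culture, induced with 0.3% L-arabinose, DNA abundance read by NGS, three biological replicates, DESeq2 with apeglm shrinkage.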

| Sequence | shrunken log2 fold change |
| --- | --- |
| RRIRARPPRLPRPRPRPVCRPRP | 0.505 |
| RRIRARPPRLPRPRPRPVDKPRP | 0.363 |
| RRIRARPPRLPRPRPRPVFDPRP | 0.321 |
| RRIRARPPRLPRPRPRPVHFPRP | 0.396 |
| RRIRARPPRLPRPRPRPVIYPRP | -0.308 |
| RRIRARPPRLPRPRPRPVKCPRP | 0.03 |
| RRIRARPPRLPRPRPRPVKEPRP | -0.0493 |
| RRIRARPPRLPRPRPRPVKNPRP | 0.384 |
| RRIRARPPRLPRPRPRPVLQPRP | 1.09 |
| RRIRARPPRLPRPRPRPVMHPRP | 0.191 |
| RRIRARPPRLPRPRPRPVNQPRP | -0.0386 |
| RRIRARPPRLPRPRPRPVPVPRP | 0.423 |
| RRIRARPPRLPRPRPRPVSQPRP | 0.385 |
| RRIRARPPRLPRPRPRPVTSPRP | 0.293 |
| RRIRARPPRLPRPRPRPVTWPRP | 0.291 |
| RRIRARPPRLPRPRPRPVYFPRP | -0.135 |
| RRIRARPPRLPRPRPRPWAKPRP | 0.334 |
| RRIRARPPRLPRPRPRPWAYPRP | -0.0297 |
| RRIRARPPRLPRPRPRPWDMPRP | 0.187 |
| RRIRARPPRLPRPRPRPWDQPRP | 0.353 |
| RRIRARPPRLPRPRPRPWDTPRP | 0.0787 |
| RRIRARPPRLPRPRPRPWDWPRP | 0.991 |
| RRIRARPPRLPRPRPRPWEHPRP | -0.0255 |
| RRIRARPPRLPRPRPRPWIIPRP | -0.0127 |
| RRIRARPPRLPRPRPRPWIQPRP | -0.103 |

| Sequence | shrunken log2 fold change |
| --- | --- |
| RRIRARPPRLPRPRPRPWKAPRP | -0.0198 |
| RRIRARPPRLPRPRPRPWKCPRP | 0.0662 |
| RRIRARPPRLPRPRPRPWLSPRP | 0.18 |
| RRIRARPPRLPRPRPRPWMGPRP | 0.0382 |
| RRIRARPPRLPRPRPRPWMNPRP | -0.121 |
| RRIRARPPRLPRPRPRPWMPPRP | -0.216 |
| RRIRARPPRLPRPRPRPWMYPRP | -0.794 |
| RRIRARPPRLPRPRPRPWNTPRP | -0.427 |
| RRIRARPPRLPRPRPRPWPHPRP | -0.0357 |
| RRIRARPPRLPRPRPRPWPSPRP | -0.0645 |
| RRIRARPPRLPRPRPRPWQAPRP | -0.0548 |
| RRIRARPPRLPRPRPRPWQRPRP | 0.000557 |
| RRIRARPPRLPRPRPRPWTVPRP | -0.0846 |
| RRIRARPPRLPRPRPRPWWEPRP | 0.37 |
| RRIRARPPRLPRPRPRPWWHPRP | -0.0749 |
| RRIRARPPRLPRPRPRPWWRPRP | 0.0229 |
| RRIRARPPRLPRPRPRPWYPPRP | -0.11 |
| RRIRARPPRLPRPRPRPYCEPRP | 0.0687 |
| RRIRARPPRLPRPRPRPYCIPRP | -0.151 |
| RRIRARPPRLPRPRPRPYDIPRP | 0.00126 |
| RRIRARPPRLPRPRPRPYDKPRP | -0.865 |
| RRIRARPPRLPRPRPRPYDMPRP | -0.0195 |
| RRIRARPPRLPRPRPRPYEIPRP | -0.059 |
| RRIRARPPRLPRPRPRPYEPPRP | 0.116 |
| RRIRARPPRLPRPRPRPYEWPRP | -0.0646 |

| Sequence | shrunken log2 fold change |
| --- | --- |
| RRIRARPPRLPRPRPRPYFVPRP | -0.122 |
| RRIRARPPRLPRPRPRPYFWPRP | -0.0609 |
| RRIRARPPRLPRPRPRPYGNPRP | -0.0109 |
| RRIRARPPRLPRPRPRPYHGPRP | -1.67 |
| RRIRARPPRLPRPRPRPYHKPRP | -0.193 |
| RRIRARPPRLPRPRPRPYHVPRP | -0.963 |
| RRIRARPPRLPRPRPRPYIWPRP | -0.543 |
| RRIRARPPRLPRPRPRPYKVPRP | -0.00867 |
| RRIRARPPRLPRPRPRPYMKPRP | -0.366 |
| RRIRARPPRLPRPRPRPYMNPRP | -0.337 |
| RRIRARPPRLPRPRPRPYNCPRP | -0.0254 |
| RRIRARPPRLPRPRPRPYNSPRP | -1.21 |
| RRIRARPPRLPRPRPRPYPIPRP | -0.249 |
| RRIRARPPRLPRPRPRPYPVPRP | -0.191 |
| RRIRARPPRLPRPRPRPYQGPRP | -0.135 |
| RRIRARPPRLPRPRPRPYRLPRP | -0.275 |
| RRIRARPPRLPRPRPRPYRQPRP | -0.0187 |
| RRIRARPPRLPRPRPRPYSIPRP | -0.374 |
| RRIRARPPRLPRPRPRPYSKPRP | -0.91 |
| RRIRARPPRLPRPRPRPYTHPRP | -0.373 |
| RRIRARPPRLPRPRPRPYTSPRP | 0.0229 |
| RRIRARPPRLPRPRPRPYTTPRP | -0.168 |
| RRIRARPPRLPRPRPRPYTYPRP | -0.458 |
| RRIRARPPRLPRPRPRPYWLPRP | -0.148 |
| RRIRARPPRLPRPRPRPYWTPRP | -0.16 |
